In patent US20110294740A1 (RESEARCH FOUNDATION FOR THE STATE UNIVERSITY OF NEW YORK, published 2011):

B1: myelin basic protein (purified MBP) (other, human, UniProt P02686-5 2-171, looked up)
chain: ASQKRPSQRHGSKYLATASTMDHARHGFLPRHRDTGILDSIGRFFGGDRGAPKRGSGKDSHHPARTAHYGSLPQKSHGRTQDENPVVHFFKNIVTPRTPPPSQGKGRGLSLSRFSWGAEGQRPGFGYGGRASDYKSAHKGFKGVDAQGTLSKIFKLGGRDSRSGSPMARR
notes: also called intact MBP

Experiments:
[1] = biological target: B1; assay: dot blot: peptide immobilised on nitrocellulose, incubated with MBP, detected with mAb 384
Description: Dot Blot Analysis. […] Insulin (Sigma) was resuspended to 2 mg/ml in water at pH 2.0 and diluted to 2 μg/ml in Tris-buffered saline. 1 μg of each was immobilized onto Hybond ECL nitrocellulose membranes using a Bio-Dot microfiltration apparatus (Bio-Rad) according to the manufacturer's instructions. Each membrane was removed from the apparatus following immobilization and blocked overnight in 5% BSA and PBS at 4° C. […] The membrane was washed 3×10 min with 5% BSA, PBS, and 0.05% Tween 20 and incubated with mAb 384 (1:2000 dilution) for 1 h at room temperature. The membrane was next washed […] with PBS and 0.05% Tween 20 and incubated with horseradish peroxidase-conjugated sheep antimouse IgG (1:2000 dilution) for 1 h at room temperature. Detection and quantitation were performed as described above.

wild-type Aβ42 peptide = biological target: T1, wild-type Aβ42 peptide (UniProt P05067 672-713); assay: SPR, Aβ peptide immobilised, MBP as analyte
T1 construct: domain: Aβ42; Free in co-immunoprecipitation; also called Aβ42WT
T1 sequence (P05067 672-713 limits assumed): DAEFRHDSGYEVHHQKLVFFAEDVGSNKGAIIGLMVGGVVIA

Binder	binding result [1]	Kd (wild-type Aβ42 peptide)
RGRKQCKTHPHFVIPYRCLV [APP 100-119]	no binding (tested: 1 g/ml MBP (as printed in paragraph 99))	–
B1	–	43 nM
PEERHLSKMQQNGYENPTYK (also called AβPP-(744-763)) [APP 744-763]	no binding (tested: 1 g/ml MBP (as printed in paragraph 99))	–
